This data set deals with the molecule itself. The experiment in a line: SEC; Superose 6 10/300 column in PBS/Az, 0.3 ml/min, A280 monitored; self-association (mixture of oligomers). Background: SEC sorts molecules by how far they enter the pores of the column.

B1: wild type clusterin purified from human plasma (natural protein)
chain 1: DQTVSDNELQEMSNQGSKYVNKEIQNAVNGVKQIKTLIEKTNEERKTLLSNLEEAKKKKEDALNETRESETKLKELPGVCNETMMALWEECKPCLKQTCMKFYARVCRSGSGLVGRQLEEFLNQSSPFYFWMNGDRIDSLLENDRQQTHMLDVMQDHFSRASSIIDELFQDRFFTREPQDTYHYLPFSLPHRRPHFFFPKSRIVR
chain 2: SLMPFSPYEPLNFHAMFQPFLEMIHEAQQAMDIHFHSPAFQHPPTEFIREGDDDRTVCREIRHNSTGCLRMKDQCDKCREILSVDCSTNNPSQAKLRRELDESLQVAERLTRKYNELLKSYQWKMLNTSSLLEQLNEQFNWVSRLANLTQGEDQYYLRVTTVASHTSDSDVPSGVTEVVVKLFDSDPITVTVPVEVSRKNPKFMETVAEKALQEYRKKHREE
modifications: glycosylated | glycosylated
notes: clusterin beta-chain, human; joined to the alpha-chain by 5 disulfide bonds; clusterin alpha-chain, human; joined to the beta-chain by 5 disulfide bonds; Disulphide-bonded alpha-beta heterodimer with heterogeneous glycosylation, from pooled donors; also called wtCLU; human plasma clusterin
As to B1, the binding result is “binds”.

B2: mammalian cell-expressed recombinant clusterin secreted by stably transfected HEK293 cells (natural protein, human)
chain 1: DQTVSDNELQEMSNQGSKYVNKEIQNAVNGVKQIKTLIEKTNEERKTLLSNLEEAKKKKEDALNETRESETKLKELPGVCNETMMALWEECKPCLKQTCMKFYARVCRSGSGLVGRQLEEFLNQSSPFYFWMNGDRIDSLLENDRQQTHMLDVMQDHFSRASSIIDELFQDRFFTREPQDTYHYLPFSLPHRRPHFFFPKSRIVR
chain 2: SLMPFSPYEPLNFHAMFQPFLEMIHEAQQAMDIHFHSPAFQHPPTEFIREGDDDRTVCREIRHNSTGCLRMKDQCDKCREILSVDCSTNNPSQAKLRRELDESLQVAERLTRKYNELLKSYQWKMLNTSSLLEQLNEQFNWVSRLANLTQGEDQYYLRVTTVASHTSDSDVPSGVTEVVVKLFDSDPITVTVPVEVSRKNPKFMETVAEKALQEYRKKHREE
modifications: glycosylated | glycosylated
notes: clusterin beta-chain, human, from human CLU cDNA in pRcCMV; secreted and cleaved into alpha- and beta-chains; clusterin alpha-chain, human, from human CLU cDNA in pRcCMV; Disulphide-bonded alpha-beta heterodimer, less glycosylated than plasma clusterin; No tag is stated; also called m-rCLU; rCLU
For the protein B2, the binding result is “binds”.

(Values after PMC3900688, “Expression and Purification of Chaperone-Active Recombinant Clusterin” (PLoS ONE, 2014).)
